Experiment in all cases: co-immunoprecipitation (anti-HA agarose beads), western blot, ImageJ densitometry
Common to all, as to details: three independent experiments; parent: est. 0.97; read off a plot
(Immunoblotting shows a protein as a band on a membrane.)

The target of assay [1] is WT-Clocka, FLAG-tagged (zebrafish Clocka, wild type).
Assay [2] deals with WT-Bmal1a, HA-tagged (zebrafish Bmal1a, wild type).
For assay [3], the target named is Bmal1a-mut, HA-tagged (zebrafish Bmal1a with the four cetacean-specific BMAL1 mutations).

On to “WT-Bmal1a, HA-tagged (zebrafish Bmal1a, wild type) D3E; L456P; H461R; M466T”, for which the ratio to parent in assay [1] is 1.2.

As to “WT-Clocka, FLAG-tagged (zebrafish Clocka, wild type) M724V; S752P; T779A”, the ratio to parent in assay [2] was 1.6.

On to “m1; m3 Clocka: M724V; S752P; T779A; Bmal1a: D3E; L456P; H461R; M466T”, for which the ratio to parent in assay [3] worked out at 1.6.

These data come from PMC11919277.
